US20060257383A1

Biological target: active MMP-2 (Calbiochem) (UniProt P08253)
Assay: cell-based or functional assay

Sequence of UniProt P08253 (P08253 110-660 limits assumed): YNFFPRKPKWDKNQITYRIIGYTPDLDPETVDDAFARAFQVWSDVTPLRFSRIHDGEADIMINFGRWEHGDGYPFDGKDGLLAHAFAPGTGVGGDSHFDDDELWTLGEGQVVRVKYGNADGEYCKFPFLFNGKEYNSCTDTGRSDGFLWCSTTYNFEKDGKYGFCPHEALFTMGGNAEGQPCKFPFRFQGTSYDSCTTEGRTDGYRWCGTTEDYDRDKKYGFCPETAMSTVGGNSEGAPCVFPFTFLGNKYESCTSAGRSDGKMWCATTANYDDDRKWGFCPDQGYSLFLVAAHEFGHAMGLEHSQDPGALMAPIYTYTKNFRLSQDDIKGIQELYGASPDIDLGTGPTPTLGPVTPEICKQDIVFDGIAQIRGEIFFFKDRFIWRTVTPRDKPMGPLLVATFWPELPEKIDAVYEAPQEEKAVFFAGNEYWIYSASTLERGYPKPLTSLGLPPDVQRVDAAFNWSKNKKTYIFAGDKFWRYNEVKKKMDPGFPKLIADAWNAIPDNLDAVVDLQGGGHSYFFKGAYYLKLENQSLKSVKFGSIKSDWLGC

## TIMP-1-HA (exogenous human TIMP-1 with a C-terminal HA epitope tag, secreted by stable NIKS clone INV TIMP-1-HA:28) (from UniProt P01033 24-207)
  inhibition in MMP-2 protease activity compared to untransfected NIKS (EnzChek Gelatinase/Collagenase Assay, DQ gelatin): < 40%
